The record followed here is paper PMC7272391.

Experiment [1] deals with human neonatal Fc receptor (human) (UniProt P55899). As to the kind of experiment: SPR; BIAcore chip with immobilised anti-β2-microglobulin antibody capturing human FcRn; antibody diluted >5000-fold in assay buffer and injected at 0.15625-2.5 μg/mL; bivalent analyte model. Background: Surface plasmon resonance follows binding to a sensor surface in real time, without labels.

For experiment [2], the target named is human Fc-gamma receptor IIIa(F) (human) (UniProt P08637). Description: SPR; BIAcore chip with immobilised anti-His antibody capturing His-tagged human FcγRIIa, IIb, IIIa(F), IIIa(V), IIIbNA1 or IIIbNA2; antibody exchanged into assay buffer and injected at 0.125-4.0 mg/mL; steady state affinity model.
Experiment [3] deals with human Fc-gamma receptor IIb (human) (UniProt P31994). The experiment is described as above.
For experiment [4], the target named is human Fc-gamma receptor IIa (human) (UniProt P12318). Described as above.
Experiment [5] concerns the target human Fc-gamma receptor I (human) (UniProt P12314). Description: SPR; BIAcore chip with immobilised anti-His antibody capturing His-tagged human FcγRI; antibody diluted >5000-fold in assay buffer and injected at 0.125-4.0 μg/mL; 1:1 Langmuir binding model.

Values joined by “and” are separate entries in the source; they are usually repeats but may differ in a detail not shown here. Equal values may be shown once.

UniProt P55899, sequence (P55899 24-365, chain 1 of 2): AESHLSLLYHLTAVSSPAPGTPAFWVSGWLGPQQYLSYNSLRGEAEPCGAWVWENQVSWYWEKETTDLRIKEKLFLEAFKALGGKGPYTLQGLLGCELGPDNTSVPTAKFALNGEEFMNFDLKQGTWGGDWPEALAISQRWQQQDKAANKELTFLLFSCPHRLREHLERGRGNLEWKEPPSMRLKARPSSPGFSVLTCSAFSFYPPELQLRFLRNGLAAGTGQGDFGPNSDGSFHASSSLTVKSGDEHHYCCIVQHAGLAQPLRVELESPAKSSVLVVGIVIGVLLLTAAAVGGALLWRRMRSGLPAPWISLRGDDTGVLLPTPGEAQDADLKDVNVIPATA
UniProt P55899, sequence (P61769 21-119, chain 2 of 2, further chain): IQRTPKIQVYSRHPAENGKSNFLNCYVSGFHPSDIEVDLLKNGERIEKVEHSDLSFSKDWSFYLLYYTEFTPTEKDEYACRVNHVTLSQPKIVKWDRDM
UniProt P31994, sequence (P31994 43-310): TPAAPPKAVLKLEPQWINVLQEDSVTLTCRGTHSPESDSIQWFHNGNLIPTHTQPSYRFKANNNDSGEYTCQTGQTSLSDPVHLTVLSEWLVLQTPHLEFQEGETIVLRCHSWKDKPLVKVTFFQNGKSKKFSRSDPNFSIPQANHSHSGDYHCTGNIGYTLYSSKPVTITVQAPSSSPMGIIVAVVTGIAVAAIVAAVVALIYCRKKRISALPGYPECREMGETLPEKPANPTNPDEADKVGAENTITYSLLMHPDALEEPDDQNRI
UniProt P12318, sequence (P12318 34-317): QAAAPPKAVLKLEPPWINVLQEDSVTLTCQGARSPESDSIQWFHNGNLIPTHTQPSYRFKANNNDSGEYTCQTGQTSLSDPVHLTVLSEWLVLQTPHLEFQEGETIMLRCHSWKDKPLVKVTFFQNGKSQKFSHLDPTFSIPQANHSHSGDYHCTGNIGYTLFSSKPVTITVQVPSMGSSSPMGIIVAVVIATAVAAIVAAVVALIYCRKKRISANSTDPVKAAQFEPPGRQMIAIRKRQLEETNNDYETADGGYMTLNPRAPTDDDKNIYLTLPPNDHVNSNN
UniProt P12314, sequence (P12314 16-374): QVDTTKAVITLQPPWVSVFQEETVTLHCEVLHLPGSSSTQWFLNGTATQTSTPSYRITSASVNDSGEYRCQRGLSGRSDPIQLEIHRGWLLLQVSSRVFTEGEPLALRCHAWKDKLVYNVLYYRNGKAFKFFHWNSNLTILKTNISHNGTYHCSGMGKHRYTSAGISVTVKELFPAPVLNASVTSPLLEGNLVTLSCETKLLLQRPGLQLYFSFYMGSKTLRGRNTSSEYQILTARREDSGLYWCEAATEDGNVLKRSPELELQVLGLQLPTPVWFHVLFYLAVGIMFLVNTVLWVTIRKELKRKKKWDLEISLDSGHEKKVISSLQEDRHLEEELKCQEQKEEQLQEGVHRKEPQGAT
UniProt P08637, sequence (P08637 17-254): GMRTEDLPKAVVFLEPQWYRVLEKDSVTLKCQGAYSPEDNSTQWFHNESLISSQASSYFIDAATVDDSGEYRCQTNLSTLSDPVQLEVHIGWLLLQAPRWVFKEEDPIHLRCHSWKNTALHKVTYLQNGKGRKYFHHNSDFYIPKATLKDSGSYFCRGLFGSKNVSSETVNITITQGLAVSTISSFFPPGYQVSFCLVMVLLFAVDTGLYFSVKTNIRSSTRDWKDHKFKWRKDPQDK

On to FKB327 (antibody), for which the Kd is 66.4 nM and 75.9 nM in experiment [1]; 1000 nM in experiment [2]; 13800 nM and 15700 nM in experiment [3]; 7650 nM and 8470 nM in experiment [4]; 0.382 nM and 0.436 nM in experiment [5].
